Target: PDL1 on MDA MB-231 human breast cancer cells (human) (UniProt Q9NZQ7)
Test: flow cytometry on MDA MB-231 cells, anti-human IgG Fc secondary antibody

Sequence of UniProt Q9NZQ7 (Q9NZQ7 19-290): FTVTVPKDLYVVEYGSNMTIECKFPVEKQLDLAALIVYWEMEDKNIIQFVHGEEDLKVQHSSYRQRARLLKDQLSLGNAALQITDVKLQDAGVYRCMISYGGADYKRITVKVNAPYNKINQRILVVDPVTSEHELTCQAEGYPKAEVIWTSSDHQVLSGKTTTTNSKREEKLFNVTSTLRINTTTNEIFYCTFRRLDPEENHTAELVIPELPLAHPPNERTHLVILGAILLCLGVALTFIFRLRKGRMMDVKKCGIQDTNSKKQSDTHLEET

Kd: 167 pM
Substance: 德瓦鲁单抗(durvalumab) (antibody)

— CN118076384A
